Results as given in patent publication US20160326219A1, “OPTICALLY ACTIVATED RECEPTORS” (IST AUSTRIA (INSTITUTE OF SCIENCE AND TECHNOLOGY AUSTRIA), priority 2013, published 2016).

Columns and labels:
Assay type in all cases: cell-based, human
MAPK pathway = experiment: Stimulation and detection of MAPK signaling, PathDetect Elk1 luciferase reporter (HEK293 cells)
Protocol: For light stimulation of cells, an incubator (PT2499, ExoTerra/HAGEN, Holm, Germany) was equipped with 300 light emitting diodes (JS-FS505ORGB-W30 with JS-CON-004 controller, Komerci, Ebern, Germany; λmax˜630 nm (red), λmax˜530 nm (green), λmax˜470 nm (blue), bandwidth ˜±5 nm). Light intensity was controlled with an analog dimmer and measured with a digital power meter (PM120VA, Thorlabs, Munich, Germany). Intensities at maximal output were 2.3 (red), 2.6 (green) and 3.3 (blue light) W/m^2. For stimulation over extended time periods (>8 h), an aluminium box was equipped with the same light-emitting diodes and controller and placed in an incubator with standard tissue culture conditions (see below).
HEK293 cells and CHO-K1 (American Type Culture Collection (ATCC), Manassas, Va.) cells were maintained in DMEM supplemented with 10% FBS, 100 U/ml penicilin and 0.1 mg/ml streptomycin in a humidified incubator with 5% CO2 atmosphere. After trypsination, 5×10^4 cells were seeded in each well of 96-well plates (three to four wells for each construct) coated with poly-L-ornithine (Sigma, Vienna, Austria). Either transparent plates or black clear bottom plates were used. Cells were transfected using Lipofectamine 2000 (Invitrogen/LifeTech).
Phycocyanobilin (PCB; Livchem Logistics GmbH, Frankfurt a.M., Germany) was dissolved in a dark room to a stock concentration of 10 mM in DMSO. Aliquots were stored in the dark at −20° C. Prior to experiments, cells were incubated with 50 μM PCB overnight in reduced serum starve medium at 37° C. PCB could also be applied to applied to living animals as it is non-toxic even in high doses (0.17% of diet or 10 mg/kg) (McCarty (2007).
Activation of the MAPK pathway was assayed with the PathDetect Elk1 trans-Reporting System (Agilent) consisting of an Elk1 phosphorylation-dependent trans-activator and a luciferase-based trans-reporter. Cells were transfected with 213.3 ng total DNA per well (receptor, trans-activator and trans-reporter at ratio of 1:3:60 or 1:30:600) using Lipofectamine 2000. Six h after transfection medium was replaced with CO2-independent reduced serum starve medium (Gibco/Life Technologies; supplemented with 0.5% FBS, 2 mM L-Glutamine, 100 U/ml penicilin and 0.1 mg/ml streptomycin) for 18 h at 37° C. Cells were transferred and were either kept under constant illumination for 8 h or were protected from light. Chemical stimulation of imFGFR1 followed the same procedure, except that 10 nM AP20187 ((Clackson 1998); ARIAD Pharmaceuticals, Cambridge, Mass.) were added before transfer to the stimulation incubator. After incubation, plates were washed once with PBS and luciferase was detected with standard, off-the-shelf reagents. These were either Luciferase 1000 Assay System (Promega, Mannheim, Germany) in combination with a microplate reader equipped with an injector (Tecan Infinite 200 Pro, Maennedorf, Switzerland), or ONE-Glo Assay System (Promega) in combination with a microplate reader not equipped with an injector (BioTek Synergy H1). These assay systems provide equivalent results.

M38K cells [1] = experiment: Stimulation and Western blot (M38K cells); conditions: ~3 μW/mm^2
Text: M38K and SPC212, two malignant pleural mesothelioma cell lines, were maintained in RPMI1640 supplemented with 10% FBS. Telomerase-immortalized microvascular hBE cells were maintained in Clonetics EGM2 MV endothelial growth medium (Lonza, Wakersville, Md.) supplemented with 5% FBS. For retrovirus generation, Opto-mFGFR1 or mCherry as control was subcloned into pQCXIP (Clontech, Mountain View, Calif.) using EcoRI and NotI restriction enzymes. Viral particles were generated in HEK293 cells by co-transfection with the helper plasmids pVSV-G and p-gag-pol-gpt. Supernatants were used to transduce M38K, SPC212 or hBE cells grown to 50% confluency in 6-well plates. Cells were selected with 0.8 μg/ml puromycin for 10 d and transgene expression was verified by immunoblotting.
For immunoblotting, 5×10^5 cells were seeded in each well of 6-well plates. After 24 h, medium was replaced with reduced serum medium (M38K, SPC212). After additional 20 h, cells were transferred to the stimulation incubator and illuminated for 1, 5 or 15 min or shielded from light. Cells were then either immediately or after additional 5, 15 or 30 min in the dark washed and lysed in 50 μl lysis buffer per well on ice. Lysates were sonicated and centrifuged (12000 g, 5 min, 4° C.). […] Chemiluminescence was developed with WesternC reagent (Biorad, Hercules, Calif.) and signals recorded on X-ray film (GE Healthcare).

M38K cells [2] = experiment: Cell proliferation, EdU incorporation (M38K cells)
Protocol: 2×10^4 M38K cells were seeded in each well of 96-well plates. After 24 h, cells were stimulated for 1 h or kept in the dark. FGF2 (Sigma, St. Louis, Mo.) was added as indicated. After 24 h, cells were incubated with 10 μM EdU for 2 h. Subsequently, newly synthesized DNA was stained with Click-iT EdU (Life Technologies) following the manufacturer's protocol and counterstained with 5 μg/ml Hoechst dye. Cells were photographed on a Nikon Ti300 inverted microscope. To determine the percentage of cells with newly synthesized DNA, Hoechst positive nuclei and EdU positive nuclei were counted.

B1: Opto-mFGFR1: chimeric receptor of mFGFR1 intracellular domain and VfAU1-LOV, SEQ ID NO: 58 (protein)
chain: MGSSKSKPKDPSQRLDMKSGTKKSDFHSQMAVHKLAKSIPLRRQVTVSADSSASMNSGVLLVRPSRLSSSGTPMLAGVSEYELPEDPRWELPRDRLVLGKPLGEGCFGQVVLAEAIGLDKDKPNRVTKVAVKMLKSDATEKDLSDLISEMEMMKMIGKHKNIINLLGACTQDGPLYVIVEYASKGNLREYLQARRPPGLEYCYNPSHNPEEQLSSKDLVSCAYQVARGMEYLASKKCIHRDLAARNVLVTEDNVMKIADFGLARDIHHIDYYKKTTNGRLPVKWMAPEALFDRIYTHQSDVWSFGVLLWEIFTLGGSPYPGVPVEELFKLLKEGHRMDKPSNCTNELYMMMRDCWHAVPSQRPTFKQLVEDLDRIVALTSNQEYLDLSIPLDQYSPSFPDTRSSTCSSGEDSVFSHEPLPEEPCLPRHPTQLANSGLKRRVETGPDYSLVKALQMAQQNFVITDASLPDNPIVYASRGFLTLTGYSLDQILGRNCRFLQGPETDPRAVDKIRNAITKGVDTSVCLLNYRQDGTTFWNLFFVAGLRDSKGNIVNYVGVQSKVSEDYAKLLVNEQNIEYKGVRTSNMLRRKTGGSGVDYPYDVPDYALD
modifications: mFGFR1-VfAU1-LOV
MAPK pathway; HEK293 cells expressing the fusion protein (LOV domain fused to RTK intracellular domain), ~3 μW/mm^2
  MAPK pathway activation in response to blue light: activated the MAPK pathway similarly to imFGFR1
MAPK pathway; HEK293 cells, control experiment
  MAPK pathway activation in response to green light or red light: no effect
MAPK pathway; I472V, HEK293 cells, FIG. 5c
  Activation by blue light after reducing the lifetime of VfAU1-LOV ~8-fold by mutation: reduces Opto-mFGFR1 activation
MAPK pathway; kinase dead (Y271F, Y272F), HEK293 cells
  MAPK pathway activation in response to blue light after loss of kinase activity: no effect
MAPK pathway; low intensity blue light
  Blue light intensity at which activated: ~3 μW/mm^2
M38K cells [1]
  Phosphorylation upon blue light stimulation: rapid phosphorylation of Opto-mFGFR1 and ERK1/2
M38K cells [2]
  Proliferation (% of nuclei incorporating 5-ethynyl-2'-deoxyuridine) upon light stimulation: increased proliferation
